The text below walks through data of the RNAGym collection of RNA variant scans (doi:10.7554/elife.80360).

B1: CPEB3 Ribozyme (parent)
chain: GGGGGCCACAGCAGAAGCGUUCACGUCGCGGCCCCUGUCAGAUUCUGGUGAAUCUGCGAAUUCUGCUGU

Variants of B1 are the subject of the series. The experiment in a line: self-cleavage, relative activity (ratio to wild type); higher = more cleavage; co-transcriptional.
GGGGGCCUCAGCAGAAGCGUUCACGUCGCGGCCCCUGUCAGAUUCUGGGGAAUCUGCGAAUUCUGCUGU [A8U U49G]: the self-cleavage is 1.02.

GGGGGCCUCAGCAGAAGCGUUCACGUCGCGGCCCCUGUCAGAUUCUGGUGAAUCUGCGAAUUCAGCUGU [A8U U64A]: the self-cleavage was determined as 0.969.

For the variant GGGGGCCAAAGCAGAAGCGUUCUCGUCGCGGCCCCUGUCAGAUUCUGGUGAAUCUGCGAAUUCUGCUGU [C9A A23U], the self-cleavage amounted to 1.

Consider GGGGGCCAAAGCAGAAGCGUUCGCGUCGCGGCCCCUGUCAGAUUCUGGUGAAUCUGCGAAUUCUGCUGU [C9A A23G], for which the self-cleavage came out at 1.02.

On to GGGGGCCAAUGCAGAAGCGUUCACGUCGCGGCCCCUGUCAGAUUCUGGUGAAUCUGCGAAUUCUGCUGU [C9A A10U], for which the self-cleavage is 1.05.

With GGGGGCCUCAGCAGAAGCGUUCACGUCGCGGCCCCUGUCAGAUUCUGGUGAAUCUGCGAAUCCUGCUGU [A8U U62C], the self-cleavage worked out at 0.994.

On to GGGGGCCAAAGCUGAAGCGUUCACGUCGCGGCCCCUGUCAGAUUCUGGUGAAUCUGCGAAUUCUGCUGU [C9A A13U], for which the self-cleavage is 0.725.

As to GGGGGCCAAAGCGGAAGCGUUCACGUCGCGGCCCCUGUCAGAUUCUGGUGAAUCUGCGAAUUCUGCUGU [C9A A13G], the self-cleavage was determined as 0.901.

In the case of GGGGGCCUCAGCAGAAGCGUUCACGACGCGGCCCCUGUCAGAUUCUGGUGAAUCUGCGAAUUCUGCUGU [A8U U26A], the self-cleavage is 0.893.

As for GGGGGCCUCAGCAGAAGCGUUCACGCCGCGGCCCCUGUCAGAUUCUGGUGAAUCUGCGAAUUCUGCUGU [A8U U26C], the self-cleavage worked out at 0.924.

GGGGGCCUCAGCAGAAGCGUUCACGGCGCGGCCCCUGUCAGAUUCUGGUGAAUCUGCGAAUUCUGCUGU [A8U U26G]: the self-cleavage turned out to be 0.97.

In the case of GGGGGCCAAAGCAGAAGCGUUCACGUCGCGGCCCCUGUCAGAUUCUGGUGAAUCUGUGAAUUCUGCUGU [C9A C57U], the self-cleavage is 0.423.

For GGGGGCCAAAGCAGAAGCGUUCACGUCGCGGCCCCUGUCAGAUUCUGGUGAAUCUGGGAAUUCUGCUGU [C9A C57G], the self-cleavage stood at 0.366.

In the case of GGGGGCCAAAGCAGAAGCGUUCACGUCGCGGCCCCUGUCAGAUUCUGGUGAAUCUGAGAAUUCUGCUGU [C9A C57A], the self-cleavage came out at 0.37.

With GGGGGCCUCAGCAGAAGCGUUCACGUCGCGGCCCCUGUCAGAUUCUGGUGAAUCUGCGAAAUCUGCUGU [A8U U61A], the self-cleavage came to 0.944.

As for GGGGGCCUCAGCAGAAGCGUUCACGUCGCGGCCCCUGUCAGAUUCUGGUGAAUCUGCGAAGUCUGCUGU [A8U U61G], the self-cleavage came to 0.959.

With GGGGGCCUCAGCAGAAGCGUUCACGUCGCGGCCCCUGUCAGAUUCUGGUGAAUCUGCGAAUUCUGCUGC [A8U U69C], the self-cleavage amounted to 1.06.

On to GGGGGCCUCAGCAGAAGCGUUCACGUCGCGGCCCCUGUCAGAUUCUGGUGAAUCUGCGAAUUCUGCUGA [A8U U69A], for which the self-cleavage came out at 1.05.

GGGGGCCAAAGCAGAAGCGUUCACGUCGCGGUCCCUGUCAGAUUCUGGUGAAUCUGCGAAUUCUGCUGU [C9A C32U]: the self-cleavage was found to be 1.01.

On to GGGGGCCAAAGCAGAAGCGUUCACGUCGCGGCCCCUGUCAGAUUCUGGUGAAUCUGCGAGUUCUGCUGU [C9A A60G], for which the self-cleavage turned out to be 1.04.

With GGGGGCCAAAGCAGAAGCGUUCACGUCGCGGCCCCUGUCAGAUUCUGGUGAAUCUGCGACUUCUGCUGU [C9A A60C], the self-cleavage was determined as 0.364.

For GGGGGCCAAAGCAGAAGCGUUCACGUCGCGGCCCCUGUCAGAUUCUGGUGAAUCUGCGAUUUCUGCUGU [C9A A60U], the self-cleavage turned out to be 0.632.

As for GGGGGCCUCAGCAGAAGCGUUCACGUCGCGGCCCCUGUCAGAUUCUGGUGAACCUGCGAAUUCUGCUGU [A8U U53C], the self-cleavage amounted to 0.901.

Take GGGGGCCAAAGCAGAAGCGUUCACGUCGCGGCCCCUGUCAGAUUCUGGUGAAUCUGCGAAUUUUGCUGU [C9A C63U]: the self-cleavage was determined as 0.985.

For GGGGGCCAAAGCAGGAGCGUUCACGUCGCGGCCCCUGUCAGAUUCUGGUGAAUCUGCGAAUUCUGCUGU [C9A A15G], the self-cleavage was 1.03.

Consider GGGGGCCUCAGCAGAAGCGUUCACGUCGCGGCCCCUGUCAGAUUCUGGUGAAUCCGCGAAUUCUGCUGU [A8U U55C], for which the self-cleavage amounted to 0.912.

As to GGGGGCCUCAGCAGAAGCGUUCACGUCGCGGCCCCUGUCAGAUUCUGGUGAAUCGGCGAAUUCUGCUGU [A8U U55G], the self-cleavage came to 0.823.

Take GGGGGCCAAAGCAGAAGCGUUCAGGUCGCGGCCCCUGUCAGAUUCUGGUGAAUCUGCGAAUUCUGCUGU [C9A C24G]: the self-cleavage was determined as 0.697.

Take GGGGGCCAAAGCAGAAGCGUUCACGUCGCGGCCCCUGUCAGAUUCUGGUGAAUCUGCGAAUUCUGGUGU [C9A C66G]: the self-cleavage worked out at 0.923.

With GGGGGCCAAAGCAGAAGCGUUCACGUCGCGGCCCCUGUCAGAUUCUGGUGAAUCUGCGAAUUCUGAUGU [C9A C66A], the self-cleavage turned out to be 0.905.

As to GGGGGCCAAAGCAGAUGCGUUCACGUCGCGGCCCCUGUCAGAUUCUGGUGAAUCUGCGAAUUCUGCUGU [C9A A16U], the self-cleavage is 0.957.

For the variant GGGGGCCAAAGCAGAAGCGUUCACGUCGCGGCCCCUGUCAGAUUUUGGUGAAUCUGCGAAUUCUGCUGU [C9A C45U], the self-cleavage was 1.01.

Consider GGGGGCCAAAGCAGAAGCGUUCACGUCGCGGCCCCUGUCAGAUUAUGGUGAAUCUGCGAAUUCUGCUGU [C9A C45A], for which the self-cleavage worked out at 1.02.

GGGGGCCAAACCAGAAGCGUUCACGUCGCGGCCCCUGUCAGAUUCUGGUGAAUCUGCGAAUUCUGCUGU [C9A G11C]: the self-cleavage is 0.935.

For the variant GGGGGCCAAAUCAGAAGCGUUCACGUCGCGGCCCCUGUCAGAUUCUGGUGAAUCUGCGAAUUCUGCUGU [C9A G11U], the self-cleavage was found to be 0.973.

On to GGGGGCCAAAACAGAAGCGUUCACGUCGCGGCCCCUGUCAGAUUCUGGUGAAUCUGCGAAUUCUGCUGU [C9A G11A], for which the self-cleavage is 0.938.

As to GGGGGCCUCAGCAGAAGCGUUCACGUCGCGGCCCCUGACAGAUUCUGGUGAAUCUGCGAAUUCUGCUGU [A8U U38A], the self-cleavage was found to be 0.871.

Take GGGGGCCUCAGCAGAAGCGUUCACGUCGCGGCCCCUGGCAGAUUCUGGUGAAUCUGCGAAUUCUGCUGU [A8U U38G]: the self-cleavage was found to be 0.221.

On to GGGGGCCUCAGCAGAAGCGUUCACGUCGCGGCCCCUGCCAGAUUCUGGUGAAUCUGCGAAUUCUGCUGU [A8U U38C], for which the self-cleavage worked out at 1.01.
